{"source": "patent US20180161335", "proteins": {"B1": {"name": "DENND2D, 2x HA-tagged, in HEK cell lysate (protein)", "chain": "MEGQVVGRVFRLFQRRLLQLRAGPPQDNSGEALKEPERAQEHSLPNFAGGQHFFEYLLVVSLKKKRSEDDYEPIITYQFPKRENLLRGQQEEEERLLKAIPLFCFPDGNEWASLTEYPRETFSFVLTNVDGSRKIGYCRRLLPAGPGPRLPKVYCIISCIGCFGLFSKILDEVEKRHQISMAVIYPFMQGLREAAFPAPGKTVTLKSFIPDSGTEFISLTRPLDSHLEHVDFSSLLHCLSFEQILQIFASAVLERKIIFLAEGLSTLSQCIHAAAALLYPFSWAHTYIPVVPESLLATVCCPTPFMVGVQMRFQQEVMDSPMEEVLLVNLCEGTFLMSVGDEKDILPPKLQDDILDSLGQGINELKTAEQINEHVSGPFVQFFVKIVGHYASYIKREANGQGHFQERSFCKALTSKTNRRFVKKFVKTQLFSLFIQEAEKSKNPPAGYFQQKILEYEEQKKQKKPREKTVK"}, "B2": {"name": "C9ORF72 isoform B, 2x HA-tagged, in HEK cell lysate (protein)", "chain": "MSTLCPPPSPAVAKTEIALSGKSPLLAATFAYWDNILGPRVRHIWAPKTEQVLLSDGEITFLANHTLNGEILRNAESGAIDVKFFVLSEKGVIIVSLIFDGNWNGDRSTYGLSIILPQTELSFYLPLHRVCVDRLTHIIRKGRIWMHKERQENVQKIILEGTERMEDQGQSIIPMLTGEVIPVMELLSSMKSHSVPEEIDIADTVLNDDDIGDSCHEGFLLK"}, "B3": {"name": "RABEX5, 2x HA-tagged, in HEK cell lysate (protein)", "chain": "MSLKSERRGIHVDQSDLLCKKGCGYYGNPAWQGFCSKCWREEYHKARQKQIQEDWELAERLQREEEEAFASSQSSQGAQSLTFSKFEEKKTNEKTRKVTTVKKFFSASSRVGSKKEIQEAKAPSPSINRQTSIETDRVSKEFIEFLKTFHKTGQEIYKQTKLFLEGMHYKRDLSIEEQSECAQDFYHNVAERMQTRGKVPPERVEKIMDQIEKYIMTRLYKYVFCPETTDDEKKDLAIQKRIRALRWVTPQMLCVPVNEDIPEVSDMVVKAITDIIEMDSKRVPRDKLACITKCSKHIFNAIKITKNEPASADDFLPTLIYIVLKGNPPRLQSNIQYITRFCNPSRLMTGEDGYYFTNLCCAVAFIEKLDAQSLNLSQEDFDRYMSGQTSPRKQEAESWSPDACLGVKQMYKNLDLLSQLNERQERIMNEAKKLEKDLIDWTDGIAREVQDIVEKYPLEIKPPNQPLAAIDSENVENDKLPPPLQPQVYAG"}}, "key": {"[1]": {"molecular_target": "T1, RAB5A, N-terminal 6x His-tag, purified from E. coli, preloaded with BODIPY FL GDP, P20339", "T1 chain": "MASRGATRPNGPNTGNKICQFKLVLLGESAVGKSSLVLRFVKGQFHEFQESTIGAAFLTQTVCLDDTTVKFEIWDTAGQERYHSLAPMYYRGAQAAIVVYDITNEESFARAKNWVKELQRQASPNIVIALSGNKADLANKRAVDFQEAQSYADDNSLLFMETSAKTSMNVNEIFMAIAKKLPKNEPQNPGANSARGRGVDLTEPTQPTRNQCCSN"}, "[2]": {"molecular_target": "T2, RAB11A, N-terminal 6x His-tag, purified from E. coli, preloaded with BODIPY FL GDP, P62491", "T2 chain": "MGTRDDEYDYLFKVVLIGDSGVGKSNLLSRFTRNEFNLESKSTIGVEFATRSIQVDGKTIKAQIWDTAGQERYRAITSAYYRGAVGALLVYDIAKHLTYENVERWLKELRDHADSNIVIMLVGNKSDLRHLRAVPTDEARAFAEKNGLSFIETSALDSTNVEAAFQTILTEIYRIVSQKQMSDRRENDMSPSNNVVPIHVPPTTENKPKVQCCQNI"}, "[3]": {"molecular_target": "ARF3, purified from E. coli, preloaded with BODIPY FL GDP, P61204", "sequence (P61204 whole entry)": "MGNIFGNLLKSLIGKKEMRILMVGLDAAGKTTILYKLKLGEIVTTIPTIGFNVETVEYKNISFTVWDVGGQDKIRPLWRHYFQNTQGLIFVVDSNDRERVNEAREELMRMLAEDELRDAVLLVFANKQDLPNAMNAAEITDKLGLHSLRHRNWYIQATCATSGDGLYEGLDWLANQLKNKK"}}, "data": [{"protein": "B1", "values": [{"measurement": "guanine exchange activity (BODIPY-GDP fluorescence)", "setting": "[1]", "value": "did not display guanine exchange activity on RAB5A"}, {"measurement": "guanine exchange activity (BODIPY-GDP fluorescence)", "setting": "[2]", "value": "neither RABEX-5, DENN2D, or DsRed displayed activity on RAB11A"}]}, {"protein": "B2", "values": [{"measurement": "guanine exchange activity (BODIPY-GDP fluorescence)", "setting": "[3]", "value": "C9ORF72 isoforms A and B stimulated guanine exchange on ARF3"}, {"measurement": "guanine exchange activity (BODIPY-GDP fluorescence)", "setting": "the other GTPases tested", "value": "Significant activity was not observed using both C9ORF72 isoforms on the other GTPases tested"}]}, {"protein": "B3", "values": [{"measurement": "guanine exchange activity (BODIPY-GDP fluorescence)", "setting": "[2]", "value": "neither RABEX-5, DENN2D, or DsRed displayed activity on RAB11A"}]}]}
